B1: 4Ig: four immunoglobulin-like domains of Neogenin, amino acids 1 to 383 of Accession No. AAC59662 (SEQ ID NO:1) (protein, listed as Gallus gallus)
chain: RSGPRSPLTGSVVRTFTPFYFLVEPMDILSVRGASVIMNCSSYCETPPKIEWKKDGTLLNLVSDDRRQLLPDGSLLINSVVHSKHNKPDEGYYQCVATVESLGSIVSRTAKLTVAGLPRFTSQPELSSVYKGNSAILNCEVNVDLAPFVRWEQDRQPLSLDDRVFKLPSGALLIGNATDTDGGFYRCVIESGGTPKYSEEAELKILPDPEEPQSLVFVRQPSSLTKVTGQNAVFPCVAGGFPTPYVRWTKNGEELITEDSERFALRAGGSLLISDVTEEDVGTYTCIADNENETIEAQAELAVQVPPEFLKRPANIYAHESMDIVFECEVTGKPTPTVKWVKNGDVVIPSDYFKIVKEHNLQVLGLVKSDEGFYQCIAENDVGNAQAGAQLIILDLDVAIPTLPPTSLTSATNDHLAPATTGPLPTAPRDVVATLVSTRFIRLTWRTPVSDPQGDNLTYSIFYTKEGINRERVENTSRPGETQVMIQNLMPETVYVFRVVAQNKHGHGESSAPLKVATQPEVQLPGPAPNIRAYAGSPTSVTVTWETPLSGNGEIQNYKLYYMEKGQDSEQDVDVAGLSYTITGLKKYTEYSFRVVAYNKHGPGVSTQDVVVRTLSDVPSAAPQNLTLEARNSKSIMLHWQPPPAGTHSGQITGYKIRYRKVSRKSDVTESVGGTQLFQLIEGLERGTEYNFRIAAMTVNGTGPATDWVSAETFESDLDESRVPEVPSSLHVRPLVTSIVVSWTPPENQNIVVRGYAIGYGIGSPHAQTIKVDYKQRYYTIENLDPSSHYVITLKAFNNVGEGIPLYESAVTRPHSDTSEVDLFVINAPYTPVPDPSPMMPPVGVQASILSHDTIRITWADNSLPKNQKITDARYYTVRWKTNIPANTKYKTANATTLSYLVTGLKPNTLYEFSVMVTKGRRSSTWSMTAHGTTFELVPTSPPKDVTVVSKEGKPRTIIVNWQPPSEANGKITGYIIYYSTDVNAEIHDWVIEPVVGNRLTHQIQELTLDTPYYFKIQARNSKGMGPMSEAVQFRTPKAESSDKMPNDQASGSAGKGSRPVDVGPDYKPPLSGSNSPHGSPTSPLDSNMLLVIIVSVGVITIVIVVIVAVFCTRRTTSHQKKKRAACKSVNGSHKYKGNSKDVKPPDLWIHHERLELKPIDKSPDPNPIMTDTPIPRNSQDITPVDNSMDSNIHQRRNSYRGHESEDSMSTLAGRRGMRPKMMMPFDSQPPQPVISAHPIHSLDNPHHHFHSGSLASPTRSYLHHQVSPWPVGTSMSHSDRANSTESVRNTPSSDTMPASSSQPCADHQDPDSSSGAYLGSAQEEDAAQSLPTAHVRPSHPLKSFAVPAVPAAGSAYDPTLPSTPLLTQQAPSHPVHSVKTASIGTLGRTRPPMPVVVPSAPDVQETTRMLEDSESSYEPDELTKEMAHLEGLMKDLNAITTA
modifications: Neogenin - Accession No. AAC59662

What was measured:
Type in all cases: in vivo, rat
spinal cord injured rats = experiment: Spinal cord injury (clip compression), functional analysis (BBB, motor subscore, ladder-walk); conditions: for functional recovery (BBB score and motor subscore) compared to controls: 4Ig IV or MβCD IP
Experimental: The spinal cord was injured by clip compression at spinal cord level T8 with a 20 g force. The 4Ig or vehicle was injected intraspinally immediately following SCI. 2 injections (250 ng/μL, 3 μL each) were made 1 mm rostral and 1 mm caudal to the lesion site and adjacent to the midline vein. Immediately following SCI, the 4Ig treated rats also received a 1 mg/kg dose of 4Ig intravenously (i.v.) via the intrajugular vein and subsequent i.v. injections weekly for 2 more weeks. Rats in the MβCD group received intraperitoneal (i.p.) injection of MβCD at 1000 mg/kg/week immediately following SCI and then daily i.p. injections until sacrifice. Control rats received equivalent vehicle volumes as described above.
To assess local delivery of 4Ig, 19 adult female Wistar rats were injured and injected rostral and caudal to the lesion site with 4Ig or PBS. Immediately after the intraspinal injections, 4Ig or PBS was delivered intrathecally and then continuously for 14 days (0.5 μL/hour) via the catheter and pump system.
Functional tests were performed before the injury, 1 day, and then weekly for 6 weeks post-SCI. Locomotor function was evaluated using the BBB locomotor rating scale. A score of 0 indicates no hindlimb movement, a score of 21 indicates unimpaired locomotion as observed in Control. Motor subscores were determined to assess toe clearance, predominant paw position and absence of instability. A maximal motor subscore of 7 means normal locomotion.
Ladder-walk analysis was done to assess fine motor functions. At 1 week post-SCI and weekly thereafter, rats with a BBB score greater than 10 were placed on the horizontal ladder-walk apparatus and 3 test runs were recorded. Recordings were analyzed in slow motion; the number of footfalls per hindlimb was recorded and the average was calculated for each rat per week.
Pre-operatively, 32 adult female Wistar rats (Charles River, St. Constant, QC, 200-300 g) were acclimatized and trained for baseline behavioral assessment. Rats were divided into 4 groups (n=8/group): 1) MBCD (i.p.); 2) vehicle control (i.p); 3) 4Ig (i.v. and intraspinal); 4) vehicle control (i.v. and intraspinal). Rats were anesthetized by inhalation of 2% isofluorane in combination with a mixture of nitrous oxide and oxygen (1:2, v/v). The spinal cord was exposed by laminectomy and a clip compression injury was made at spinal cord level T8 with a 20 g force. This was a clinically relevant model of SCI reflecting human pathology. n the 4Ig and equivalent control group, 4Ig or vehicle was injected intraspinally immediately following SCI. A total of 2 injections (250 ng/μL, 3 μL each) were made 1 mm rostral and 1 mm caudal to the lesion site and adjacent to the midline vein. Injections were made stereotactically with the aid of an operating microscope using a motorized microinjector at a rate of 1.5 μl/min with a 10 μl Hamilton syringe and a customized 32 G needle. The needle was left in place for an additional 2 min after injection to prevent leakage. The overlying muscle and skin were sutured with 3-0 vicryl sutures (Johnson and Johnson, Peterborough ON, Canada).
Immediately following SCI, the 4Ig treated rats also received a 1 mg/kg dose of 4Ig i.v. via the intrajugular vein and subsequent i.v. injections weekly for 2 more weeks. Rats in the MβCD group received intraperitoneal injection of MβCD at 1000 mg/kg/week immediately following SCI and then daily i.p. injections until sacrifice. Control rats received equivalent volumes as described above. Bladders were evacuated manually 3 times daily until spontaneous voiding was established, and hematuria or urinary tract infection was treated with Clavomax (62.5 mg PO BID for 7 days). The rats were housed singly in a temperature-controlled room at 26° C. with a 12 hour light/dark cycle. Water and food were provided ad libitum. […]

injured spinal cord = experiment: Spinal cord injury, immunostaining and quantitative analysis (NeuN, GFAP, lesion volume); conditions: for lesion volume compared to controls: rat, in vivo; for increase in number of peri-lesional neurons (NeuN) compared to controls: systemic application for 6 weeks
[1] = system: corticospinal tract axons; experiment: Spinal cord injury, anterograde axonal tracing of the corticospinal tract with BDA; conditions: for maximal distance of labeled fibers caudal to the lesion site: 4IG IV or MBCD IP; for average length of the longest axon: BDA tracing post-SCI, respective controls 18±7 and 128±118 μm
Experimental: To visualize axons from the CST, anterograde axonal tracing with BDA was performed 6 weeks after SCI following completion of the functional assessment. Animals (n=3-4) from each group were randomly selected for BDA injection. Under deep anesthesia with 2% isofluorane with 1:2 NO:O2, rats were positioned in a stereotaxic frame and craniotomy was performed bilaterally to expose the sensorimotor cortex. BDA (10%, 10,000 MW; Invitrogen (Life Technologies)) was dissolved in 0.01M PBS and injected at 6 sites in each sensorimotor cortex using the following coordinates in reference to bregma: 1) 0.5 mm posterior and 1 mm lateral, 2) 0.5 mm posterior and 2 mm lateral, 3) 1 mm posterior and 1 mm lateral, 4) 1 mm posterior and 2 mm lateral, 5) 1.5 mm posterior and 1 mm lateral, 6) 1.5 mm posterior and 2 mm lateral. At each site, 1 μl of BDA was injected 1.2 mm from the surface of the cortex. Injections were made stereotactically with the aid of an operating microscope using a motorized microinjector at a rate of 0.5 μl/min with a 10 μl Hamilton syringe and a 32-gauge needle. The needle was left in place for an additional 2 min after injection to prevent leakage and the skin was closed with 6-0 Vicryl. Animals were allowed to survive for 3 more weeks and then intracardially perfused with 4% paraformaldehyde in 0.1 M PBS. BDA tissue including a 1.5 cm segment of tissue encompassing the lesion site was excised and processed as either 20 μm cryosections on slides or free-floating 30 μm sections. Free-floating sections were collected in 24-well plates containing PBS. Sections were pre-treated with 1% H2O2 in methanol for 10 min at RT, rinsed with PBS containing 0.5% Triton X for 30 min, and incubated in avidin-biotin peroxidase complex (Vectostain Elite ABC Kit Standard, Vector Laboratories, Burlington, ON, Canada) for 1 h at RT. Slides were washed with PBS, and then incubated with fluorescent Alexa-488 goat anti-mouse secondary antibody (1:500; Invitrogen (Life Technologies)) for 1 h at RT and coverslipped with Vectashield mounting medium containing DAPI (4′, 6-diamidino-2-phenyl-indole) (Vector Laboratories, Burlington, Ontario, Canada) nuclear counterstain.

| Molecule | functional recovery (BBB score and motor subscore) compared to controls (spinal cord injured rats; as early as 2-3 weeks post-SCI) | improvement of locomotor recovery vs. control (spinal cord injured rats; older animals (greater than 7 month), post-SCI) | lesion volume compared to controls (injured spinal cord) | increase in number of peri-lesional neurons (NeuN) compared to controls (injured spinal cord) | maximal distance of labeled fibers caudal to the lesion site [1] | average length of the longest axon [1] [μm] | hindlimb coordination (footfalls), local application (spinal cord injured rats; intrathecal) | functional recovery (BBB score), local application (spinal cord injured rats; intrathecal, Alzet mini-osmotic pumps, as early as 2-3 weeks post-SCI) | hindlimb coordination, ladder-walk test (footfalls) (spinal cord injured rats; systemic treatment) | increase of NeuN positive cells in cross-sections of the spinal cord (injured spinal cord; intrathecal application over 6 weeks) | fiber length at 6 weeks compared to 4 weeks following injury ([1]; IV-injection) |
| --- | --- | --- | --- | --- | --- | --- | --- | --- | --- | --- | --- |
| methyl-β-cyclodextrin [MβCD, reference compound] | significant functional recovery | +6.8 BBB points | did not significantly vary | about 2 fold | about 4 mm | 2195±335 | – | – | – | – | – |
| B1 | significant functional recovery | – | did not significantly vary | about 2 fold | about 4 mm | 2875±228 | fewer footfalls | significant functional recovery | fewer footfalls | about 2 fold | significantly longer at 6 weeks |
